Measured values: patent US11827699 (dated 2023)
Changes are numbered by the printed parent chain. Values belong to the binder of their own block, whether it stands above or below them.

Experiments:
Test in all cases: SPR
human FcγRIIb = molecular target: T1, human FcγRIIb (human, UniProt P31994)
T1 chain: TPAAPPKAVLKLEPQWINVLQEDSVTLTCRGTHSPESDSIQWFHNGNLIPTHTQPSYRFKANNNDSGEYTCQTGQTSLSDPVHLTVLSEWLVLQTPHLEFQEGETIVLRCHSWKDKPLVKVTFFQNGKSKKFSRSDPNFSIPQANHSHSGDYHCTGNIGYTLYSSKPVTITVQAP

human FcγRIIIa V158 = human FcγRIIIa V158 (human, UniProt P08637)
human FcγRIIa H131 = molecular target: T2, human FcγRIIa H131 (human, UniProt P12318)
T2 chain: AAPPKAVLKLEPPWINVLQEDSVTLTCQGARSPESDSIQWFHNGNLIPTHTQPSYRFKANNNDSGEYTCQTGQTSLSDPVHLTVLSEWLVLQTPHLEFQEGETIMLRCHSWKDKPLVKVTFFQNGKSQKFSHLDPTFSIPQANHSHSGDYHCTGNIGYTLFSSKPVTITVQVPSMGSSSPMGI

human FcγRIa = molecular target: T3, human FcγRIa (human, UniProt P12314)
T3 chain: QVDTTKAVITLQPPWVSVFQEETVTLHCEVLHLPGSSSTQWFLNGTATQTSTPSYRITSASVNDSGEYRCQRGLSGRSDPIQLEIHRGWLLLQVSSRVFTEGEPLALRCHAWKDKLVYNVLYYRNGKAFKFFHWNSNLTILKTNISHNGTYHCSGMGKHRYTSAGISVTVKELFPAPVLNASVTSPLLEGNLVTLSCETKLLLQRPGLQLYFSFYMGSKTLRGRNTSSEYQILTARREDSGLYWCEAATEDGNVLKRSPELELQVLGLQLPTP

human FcγRIIa R131 = molecular target: T4, human FcγRIIa R131 (human, UniProt P12318)
T4 chain: T2 chain with H132R

human FcγRIIIa V158, sequence (P08637 17-208 F176V): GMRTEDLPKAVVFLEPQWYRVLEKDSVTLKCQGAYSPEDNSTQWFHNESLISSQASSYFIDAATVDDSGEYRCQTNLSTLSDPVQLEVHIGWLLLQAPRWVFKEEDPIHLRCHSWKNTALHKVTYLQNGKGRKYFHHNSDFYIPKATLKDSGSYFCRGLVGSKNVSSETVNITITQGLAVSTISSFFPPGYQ

Kd (human FcγRIIb): 21 nM
Kd (human FcγRIIIa V158): 35000 nM
Kd (human FcγRIIa H131): 19000 nM
Kd (human FcγRIa): 0.82 nM
B1: IL6R-BP493 (antibody)
chain 1: QVQLQESGPGLVKPSETLSLTCAVSGHSISHDHAWSWVRQPPGEGLEWIGFISYSGITNYNPSLQGRVTISRDNSKNTLYLQMNSLRAEDTAVYYCARSLARTTAMDYWGEGTLVTVSSASTKGPSVFPLAPSSKSTSGGTAALGCLVKDYFPEPVTVSWNSGALTSGVHTFPAVLQSSGLYSLSSVVTVPSSSLGTQTYICNVNHKPSNTKVDKKVEPKSCDKTHTCPPCPAPELLGGDSVFLFPPKPKDTLMISRTPEVTCVVIDVAEEDGEVKFNWYVDGVEVHNAKTKPREEQDNSTYRVVSVLTVLHQDWLNGKEYKCKVSNKALPAPIEKTISKAKGQPREPQVYTLPPSRDELTKNQVSLTCLVKGFYPSDIAVEWESNGQPENNYKTTPPVLDSDGSFFLYSKLTVDKSRWQQGNVFSCSVMHEALHNHYTQESLSLSP
chain 2: not shown

Kd (human FcγRIIa R131): 120 nM
Kd (human FcγRIIb): 3 nM
Kd (human FcγRIIIa V158): 21000 nM
Kd (human FcγRIIa H131): 2200 nM
Kd (human FcγRIa): 5.3 nM
B2: IL6R-BP491 (antibody)
chain 1: B1 chain 1 with G239D, A332R
chain 2: not shown

Kd (human FcγRIIb): 92 nM
Kd (human FcγRIIIa V158): 28000 nM
Kd (human FcγRIIa H131): 21000 nM
Kd (human FcγRIa): 4.5 nM
B3: IL6R-BP268 (antibody)
chain 1: B1 chain 1 with E235D, G239D, I266V, A269S
chain 2: not shown

Kd (human FcγRIIa R131): 1300 nM
Kd (human FcγRIIb): 78 nM
Kd (human FcγRIIIa V158): 25000 nM
Kd (human FcγRIIa H131): 18000 nM
Kd (human FcγRIa): 1.3 nM
B4: IL6R-BP483 (antibody)
chain 1: B1 chain 1 with E235D, G239D, I266V, V268L, D298Y
chain 2: not shown

Kd (human FcγRIa): 1 nM
B5: IL6R-BP435 (antibody)
chain 1: B1 chain 1 with E235D, G239D, I266V, A269S, E270D, K328A, A332R, I334T
chain 2: not shown

Kd (human FcγRIIb): 9.7 nM
Kd (human FcγRIIIa V158): 33000 nM
Kd (human FcγRIIa H131): 12000 nM
Kd (human FcγRIa): 8.3 nM
B6: IL6R-BP495 (antibody)
chain 1: B1 chain 1 with G239D, I266V, A269G, A332R
chain 2: not shown

Kd (human FcγRIIb): 3.8 nM
Kd (human FcγRIIIa V158): 25000 nM
Kd (human FcγRIIa H131): 4000 nM
Kd (human FcγRIa): 6 nM
B7: IL6R-BP510 (antibody)
chain 1: B1 chain 1 with G239D, E274P, D298Y, A332R
chain 2: not shown

Kd (human FcγRIIa H131): 2000 nM
B8: IL6R-BP423 (antibody)
chain 1: B1 chain 1 with E235D, G239D, I266V, D298Y, A332R
chain 2: not shown

Kd (human FcγRIIIa V158): 40000 nM
Kd (human FcγRIIa H131): 13000 nM
B9: IL6R-BP266 (antibody)
chain 1: B1 chain 1 with E235D, G239D, I266V, A269S, D298Y, A332R
chain 2: not shown

Kd (human FcγRIIa R131): 6300 nM
Kd (human FcγRIIb): 200 nM
Kd (human FcγRIIIa V158): 46000 nM
Kd (human FcγRIIa H131): 21000 nM
B10: IL6R-BP480 (antibody)
chain 1: B1 chain 1 with E235D, G239D, I266V, V268L, A269S, E271D, D298Y
chain 2: not shown

Kd (human FcγRIIa R131): 400 nM
Kd (human FcγRIIb): 19 nM
Kd (human FcγRIIIa V158): 24000 nM
Kd (human FcγRIIa H131): 6800 nM
Kd (human FcγRIa): 1 nM
B11: IL6R-BP481 (antibody)
chain 1: B1 chain 1 with E235D, G239D, D298Y
chain 2: not shown

Kd (human FcγRIIIa V158): 23000 nM
B12: IL6R-BP436 (antibody)
chain 1: B1 chain 1 with E235D, G239D, I266V, A332R, I334T
chain 2: not shown

Kd (human FcγRIIa R131): 900 nM
Kd (human FcγRIIb): 56 nM
Kd (human FcγRIIIa V158): 40000 nM
Kd (human FcγRIIa H131): 15000 nM
Kd (human FcγRIa): 5.3 nM
B13: IL6R-BP479 (antibody)
chain 1: B1 chain 1 with E235D, G239D, V268L, D298Y
chain 2: not shown

Kd (human FcγRIIa R131): 780 nM
Kd (human FcγRIIb): 46 nM
Kd (human FcγRIIIa V158): 25000 nM
Kd (human FcγRIIa H131): 11000 nM
Kd (human FcγRIa): 0.82 nM
B14: IL6R-BP484 (antibody)
chain 1: B1 chain 1 with E235D, G239D, I266V, E271D, D298Y
chain 2: not shown

Kd (human FcγRIIa R131): 100 nM
Kd (human FcγRIIb): 2.9 nM
Kd (human FcγRIIIa V158): 26000 nM
Kd (human FcγRIa): 2.6 nM
B15: IL6R-BP507 (antibody)
chain 1: B1 chain 1 with E235D, G239D, E274P, D298Y, A332R
chain 2: not shown

Kd (human FcγRIIa R131): 120 nM
Kd (human FcγRIIb): 3.4 nM
Kd (human FcγRIIIa V158): 55000 nM
Kd (human FcγRIa): 3.1 nM
B16: IL6R-BP506 (antibody)
chain 1: B1 chain 1 with E235D, G239D, E274P, A332R
chain 2: not shown

Kd (human FcγRIIa R131): 390 nM
Kd (human FcγRIIa H131): 32000 nM
B17: IL6R-BP428 (antibody)
chain 1: B1 chain 1 with E235D, G239D, I266V, A269G, D298Y, A332R
chain 2: not shown

Kd (human FcγRIIa R131): 180 nM
Kd (human FcγRIIb): 3.5 nM
Kd (human FcγRIIIa V158): 71000 nM
Kd (human FcγRIIa H131): 4300 nM
Kd (human FcγRIa): 6 nM
B18: IL6R-BP511 (antibody)
chain 1: B1 chain 1 with G239D, E274P, A332R
chain 2: not shown

Kd (human FcγRIIa R131): 110 nM
Kd (human FcγRIIb): 2.4 nM
Kd (human FcγRIIIa V158): 23000 nM
Kd (human FcγRIa): 4.5 nM
B19: IL6R-BP490 (antibody)
chain 1: B1 chain 1 with G239D, D298Y, A332R
chain 2: not shown

Kd (human FcγRIIa R131): 350 nM
Kd (human FcγRIIIa V158): 26000 nM
Kd (human FcγRIIa H131): 2800 nM
Kd (human FcγRIa): 7.4 nM
B20: IL6R-BP264 (antibody)
chain 1: B1 chain 1 with E235D, G239D, I266V, A269S, A332R
chain 2: not shown

Kd (human FcγRIIa R131): 180 nM
Kd (human FcγRIIa H131): 1600 nM
B21: IL6R-BP438 (antibody)
chain 1: B1 chain 1 with E235D, G239D, I266V, D298Y, A332R, I334T
chain 2: not shown

Kd (human FcγRIIa H131): 38000 nM
B22: IL6R-BP430 (antibody)
chain 1: B1 chain 1 with E235D, G239D, I266V, V268L, A269G, D298Y, A332R
chain 2: not shown

Kd (human FcγRIIa R131): 450 nM
Kd (human FcγRIIb): 24 nM
Kd (human FcγRIIIa V158): 34000 nM
Kd (human FcγRIIa H131): 16000 nM
Kd (human FcγRIa): 1.4 nM
B23: IL6R-BP504 (antibody)
chain 1: B1 chain 1 with E235D, G239D, E274P, D298Y
chain 2: not shown

Kd (human FcγRIIa R131): 49 nM
Kd (human FcγRIIb): 1.5 nM
Kd (human FcγRIIIa V158): 12000 nM
Kd (human FcγRIIa H131): 1000 nM
Kd (human FcγRIa): 1.2 nM
B24: IL6R-BP499 (antibody)
chain 1: B1 chain 1 with E235D, G239D, A332R, P398L
chain 2: not shown

Kd (human FcγRIIa R131): 43 nM
Kd (human FcγRIIb): 1 nM
Kd (human FcγRIIIa V158): 12000 nM
Kd (human FcγRIIa H131): 870 nM
Kd (human FcγRIa): 1.3 nM
B25: IL6R-BP489 (antibody)
chain 1: B1 chain 1 with E235D, G239D, A332R, P398M
chain 2: not shown

Kd (human FcγRIIb): 25 nM
Kd (human FcγRIIIa V158): 19000 nM
Kd (human FcγRIIa H131): 14000 nM
Kd (human FcγRIa): 2.1 nM
B26: IL6R-BP501 (antibody)
chain 1: B1 chain 1 with G239D, D298Y
chain 2: not shown

Kd (human FcγRIIa H131): 19000 nM
Kd (human FcγRIa): 1 nM
B27: IL6R-BP426 (antibody)
chain 1: B1 chain 1 with E235D, G239D, I266V, E271D, D298Y, A332R
chain 2: not shown

Kd (human FcγRIIa R131): 430 nM
Kd (human FcγRIIb): 21 nM
Kd (human FcγRIIIa V158): 38000 nM
Kd (human FcγRIIa H131): 11000 nM
Kd (human FcγRIa): 1.1 nM
B28: IL6R-BP505 (antibody)
chain 1: B1 chain 1 with E235D, G239D, E274D, D298Y
chain 2: not shown

Kd (human FcγRIIa R131): 80 nM
Kd (human FcγRIIb): 2.6 nM
Kd (human FcγRIIIa V158): 24000 nM
Kd (human FcγRIa): 2 nM
B29: IL6R-BP445 (antibody)
chain 1: B1 chain 1 with E235D, G239D, D298Y, A332R
chain 2: not shown

Kd (human FcγRIIa R131): 2000 nM
Kd (human FcγRIIb): 120 nM
Kd (human FcγRIIIa V158): 56000 nM
Kd (human FcγRIIa H131): 45000 nM
Kd (human FcγRIa): 10 nM
B30: IL6R-BP262 (antibody)
chain 1: B1 chain 1 with G239D, I266V, A269S, D298Y
chain 2: not shown
